Test [1] deals with mesothelin as expressed on the plasma membrane of human cells (HeLa, OVCAR-3, SK-OV-3, A1847) (human) (UniProt Q13421). The test can be described thus: flow cytometry on Hela cells, chemically biotinylated mAb K1, detection with PE streptavidin [continued) C].
Test [2] shares this target. The test can be described thus: flow cytometry on HeLa cells, chemically biotinylated antibody, PE-streptavidin, Lineweaver-Burk plot.
Test [3] concerns the target T1, mesothelin as expressed on the plasma membrane of human cells (HeLa, OVCAR-3, SK-OV-3, A1847) (human, UniProt Q13421 296-598).
T1 construct: whole, on cells; also called cellularly expressed mesothelin; cell-surface mesothelin
Kind of test: flow cytometry on HeLa cells, chemically biotinylated nanobody, PE-streptavidin, Lineweaver-Burk plot. As for the experimental part:
(§1) FIG. 4: Affinity determination of nanobodies for mesothelin as expressed on the plasma membrane of cells. Hela cells were incubated with serial dilutions of in vitro biotinylated anti-mesothelin Nb-A1 (A), Nb-C6 (B) or commercial mAb K1 antibody (•; (C)). Bound antibodies were detected by flow cytometry using PE-conjugated streptavidin. Insets are Lineweaver-Burk plots used to determine the dissociation constant. Error bars represent the standard deviation of experiments performed in triplicate.
(§2) The affinity of Nb-A1 and Nb-C6 for cellularly expressed mesothelin was determined by flow cytometry using HeLa cells for the antigen as described previously; Even-Desrumeaux et al., Mol Biosyst 8(2012), 2385-2394. Briefly, binding to HeLa cells was detected using flow cytometry after incubation with various concentrations of biotinylated nanobodies followed by PE-labeled streptavidin. Apparent KD values were determined by the equation KD=a*Fₘₐₓ in which (a) is the regression line and Fₘₐₓ is the maximum of fluorescence.

The target of test [4] is T1, mesothelin as expressed on the plasma …. Kind of test: flow cytometry on Hela cells, chemically biotinylated Nb-A1, detection with PE streptavidin. As for the experimental part:
as §1, §2

Consider two molecules from patent publication US20180002439A1 (INSTITUT NATIONAL DE LA SANTE ET DE LA RECHERCHE MEDICALE …, published 2018).

Chain of mesothelin as expressed on the plasma membrane of human cells (HeLa, OVCAR-3, SK-OV-3, A1847) (human) (Q13421 other isoform, or with tags, fused parts or gaps limits assumed): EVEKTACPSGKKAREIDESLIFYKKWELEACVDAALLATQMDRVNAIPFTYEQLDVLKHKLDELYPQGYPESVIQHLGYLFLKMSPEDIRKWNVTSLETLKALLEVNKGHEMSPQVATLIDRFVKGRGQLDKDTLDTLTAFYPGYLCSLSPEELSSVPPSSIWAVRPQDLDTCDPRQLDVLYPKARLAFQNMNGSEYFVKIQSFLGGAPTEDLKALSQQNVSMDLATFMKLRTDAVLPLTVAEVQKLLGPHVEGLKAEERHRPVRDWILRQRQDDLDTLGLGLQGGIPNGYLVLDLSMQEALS
T1 sequence (Q13421 other isoform, or with tags, fused parts or gaps limits assumed): as above

Molecule “anti-mesothelin mouse monoclonal antibody K1 (Santa Cruz Biotechnology)” had an EC50 (read off the curve) in test [1] of 2 nM. The molecule further came in with a Kd in test [2] of 2 nM.

B1: Nb-A1 (nanobody A1, comprising amino acid sequence SEQ ID NO:1) (VHH)
VHH: QVQLVQSGGGLVHPGGSLRLSCAASGIDLSLYRMRWYRQAPGKERDLVALITDDGTSYYEDSVKGRFTITRDNPSNKVFLQMNSLKPEDTAVYYCNAETPLSPVNYWGQGTQVTVS
notes: Llama VHH made in the periplasm of E. coli with a C-terminal hexahistidine tag; For the KD measurement it was chemically biotinylated (NHS-PEO4-biotin); not shown: C-terminal hexahistidine tag, named in words only
In turn, B1 yielded a dissociation constant Kd in test [3] of approximately 15 nM. In addition, in test [4], the half-maximal effective concentration (EC50 (read off the curve)) is approximately 20 nM.
